From patent US20080206220A1, “2031 Oxidoreductase” (F2G LTD, priority 2004, published 2008)

Legend:
O=C1C=CCCC1 = assay: purified protein, by the assay type; settings: other: recombinant 2031 OR, 100 mM potassium phosphate buffer pH7.0; pH 7.0
Protocol: Assay plates: Compounds to be tested were dissolved in 100% DMSO (polypropylene vessels), diluted in water and loaded into 384 square well polystyrene plates (10 μl/well). The final DMSO concentration in all assay wells was 5% v/v.
βNADPH (tetrasodium salt)/2-cyclohexen-1-one reagent; Solutions of NADPH (1.2917 mM in 100 mM potassium phosphate buffer, pH7.0) and 2-cyclohexen-1-one (10 mM in 100 mM potassium phosphate buffer, pH7.0) were prepared on the day of the assay and combined in a ratio of 1 part of 2-cyclohexen-1-one solution to 9 parts NADPH solution. Final assay well concentrations for NADPH and 2-cyclohexen-1-one were 465 μM and 400 μM respectively.
For the iscreen, protein was typically diluted to 5 to 11.25 μg/ml in 100 mM potassium phosphate buffer, pH7.0.
Stop reagent: 0.4 M NaOH in water.
To give an increased signal, the screen was carried out using 2-cyclohexen-1-one at 4 times Km. […]
Assays were carried out using Tecan Freedom, Tecan TeMo and PerkinElmer Minitrak robots together with a ThermoLabsystems multidrop 384 and a Tecan Safire automated plate reader. […] Plates were read at 340 nm on a Tecan Safire plate reader and data processed using ‘in-house’ created Excel spreadsheets to convert raw data into percent inhibition data. […]

Recombinant 2031 OR = assay: Oxidoreductase assay: NADPH oxidation monitored at 340 nm, 96-well; assay type: biochemical, Aspergillus fumigatus; settings: 500 μM substrate, 1 μg/200 μL 2031 OR, 120 μM NADPH
Protocol: The assay for 2031 OR is based on methods described by Abramovitz & Massey (1976, J. Biol. Chem. 251: 5321-5326) and Stott et al. (1993, J. Biol. Chem. 268: 6097-6106) and is based upon the ability of this enzyme to oxidise the pyridine nucleotides NADH and/or NADPH. […] Conversion of NAD(P)H to NAD(P)^+ can therefore be monitored spectrophotometrically at a wavelength of 340 nm. A similar assay can be employed for all oxidoreductases that use NADH or NADPH as a cofactor.
Assays were carried out in 96-well plates. To each well was added the following; Recombinant 2031 OR (10-1000 ng); 40 μl of 125-2500 μM NADPH; 1 μL 100 mM cyclohexeneone or other substrate, and the volume made up to 200 μL with 0.1 M potassium phosphate pH 7.0. Samples were incubated at room temperature and absorbance measurements were taken at 340 nm every 30 seconds for 10 min. The change in absorbance was expressed as nmoles NADPH oxidised, using the molar extinction coefficient of NADPH and NADH at 340 nm of 6270 (i.e., a 1M solution has an optical density of 6270 at this wavelength).
This is illustrated in FIG. 5. Final concentrations in the assay were as follows: 500 μM substrate, 1 μg/200 μL 2031 OR, 120 μM NADPH.

Compound | Km (O=C1C=CCCC1) [µM] | Reduction of substrates by recombinant 2031 OR (substrate comparison, FIG. 5) (Recombinant 2031 OR)
2031 OR enzyme (Aspergillus fumigatus Af293) | 100 | 
O=C1C=CCCC1 [2-cyclohexen-1-one] |  | better substrate than menadione, duroquinone or N-ethylmaleimide
